{
  "source": "patent US20100050279",
  "biological_target": "T1, FLPo (codon-optimized FLPe recombinase) (UniProt P03870)",
  "T1 sequence": "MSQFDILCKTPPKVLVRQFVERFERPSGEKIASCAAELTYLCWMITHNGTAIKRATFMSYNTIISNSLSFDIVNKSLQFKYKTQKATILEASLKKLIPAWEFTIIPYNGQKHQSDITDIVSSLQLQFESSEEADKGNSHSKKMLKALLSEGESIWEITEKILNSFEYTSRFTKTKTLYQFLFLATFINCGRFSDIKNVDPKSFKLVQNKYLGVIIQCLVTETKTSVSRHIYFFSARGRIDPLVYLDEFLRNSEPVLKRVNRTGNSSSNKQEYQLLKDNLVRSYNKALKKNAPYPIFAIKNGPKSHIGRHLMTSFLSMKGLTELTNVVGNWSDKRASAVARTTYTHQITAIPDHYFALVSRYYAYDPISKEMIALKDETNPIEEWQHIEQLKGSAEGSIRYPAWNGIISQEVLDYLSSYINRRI",
  "test": "cell_activity",
  "data": [
    {"substance": "FRT (FLP recognition site) in ROSA26 PLAP reporter", "values": [
      {"measurement": "activity (% of hygroR colonies recombined)", "setting": "stable integration, 7 of 14 colonies", "result": 50},
      {"measurement": "activity", "setting": "transient, mouse FLP reporter ES cells, 10 ug circular plasmid, 5 days, value stated as nearly 75%, nearly 20-fold over FLPe", "result": 75, "unit": "%"}
    ]}
  ]
}
